Like-named read-outs stand apart in the source and are kept apart here. No end group written: not given here. *: point of attachment. FITC = O=C1OC2(c3ccc(O)cc3Oc3cc(O)ccc32)c2ccc(NC(=S)*)cc21 Bounds are passed on as bounds.

The values that follow come from publication PMC3057930 (Proteins, 2010).

Holding throughout (test): fluorescence polarisation
Assay [1] addresses T1, Paramecium calmodulin N-domain fragment (CaM_(1-80)) (Paramecium, UniProt P07463 2-81).
For assay [2], the target named is T2, Paramecium calmodulin C-domain fragment (CaM_(76-148)) (Paramecium, UniProt P07463 77-149).
Assay [3] addresses T3, Paramecium calmodulin, full-length (CaM_(1-148)) (Paramecium, UniProt P07463 1-149).
The target in assay [4] is T1, Paramecium calmodulin N-domain fragment …. The source holds these as a separate data set.
Assay [5] concerns the target T2, Paramecium calmodulin C-domain fragment …. The source holds these as a separate data set.
For assay [6], the target named is T3, Paramecium calmodulin, full-length …. This is another data set of the same source.

B1: Fl-βCaNp, fluorescein-labelled peptide representing residues 400-423 of the CaNA subunit of the β-isoform of calcineurin (peptide)
peptide: {FITC}-ARKEIIRNKIRAIGKMARVFSVLR
The Kd is a measure of binding affinity in units of concentration. Low readings indicate higher affinity, high ones lower affinity. In the case of B1, the Kd in assay [1] is 600 µM; in assay [2] it was 44.1 µM; in assay [3] it was 25 µM; in assay [4] it was 7.06 µM; in assay [5] it was 0.96 µM; in assay [6], not above 0.001 µM.
